Data reported in the DeepSol protein solubility set.

test: soluble on expression in E. coli; label from the status in PepcDB or PDB records

Soluble on expression in E. coli, soluble:
MGHHHHHHSHAADEEKAARGIAADRLIIGHVARFHEVKNHAFLLKLAAHLKERGIRFQLVLAGDGPLCGEIEEEARQQNLLSDVLFLGTEERIHELMRTFDVFVMPSLYEGLPVVLVEAQASGLPCIISDSITEKVDAGLGLVTRLSLSEPISVWAETIARAAAAGRPKREFIKETLAQ
MGSDKIHHHHHHMKIAVLPGDGIGPEVVREALKVLEVVEKKTGKTFEKVFGHIGGDAIDRFGEPLPEETKKICLEADAIFLGSVGGPKWDDLPPEKRPEIGGLLALRKMLNLYANIRPIKVYRSLVHVSPLKEKVIGSGVDLVTVRELSYGVYYGQPRGLDEEKGFDTMIYDRKTVERIARTAFEIAKNRRKKVTSVDKANVLYSSMLWRKVVNEVAREYPDVELTHIYVDNAAMQLILKPSQFDVILTTNMFGDILSDESAALPGSLGLLPSASFGDKNLYEPAGGSAPDIAGKNIANPIAQILSLAMMLEHSFGMVEEARKIERAVELVIEEGYRTRDIAEDPEKAVSTSQMGDLICKKLEEIW
MLKSEDADYEKAMKDKVGTGPQEYLKQLSDSLVKNQSAASVEVVSGATHSSDAFINYANQLIQAAQKADTTTISINNLAKMEDGTYKLEEQNYAHGYRVVFSMDVKDGKITKSDYNYVDKDGKLKSDDADYEKNMKAKSGTGPKEYIPALNKSLVEKQDVAAVDTVSGATNSSNQFKIYAAQLQNAAQNGNTDTIKVYNLVEAELEHHHHHH
GMKSAPDWIAHPDTPYLLIDEAKLKSNINYLKQRVESLGSHLRPHLKTLRTLEAAGYLLDSKSAPATVSTLAEAEAYAKAGYTDLLYAVGIAPAKLKRVAALRQQGINLHILLDNITQAQAVVDYAAEFGQDFSVFIEIDSDDHRGGIKPSDSKLLTIAKTLGEHFTGLMTHAGGSYACNTEQGLKNFAKQECDAVRIARNNLETAGIHCAITSVGSTPTAHFGEDFSDISEVRAGVYTTFDLVMKNIGVCDFSHIAMSVVTTVIGHNKEKNWLLTDSGWMALSRDSGTAGQNRDFGYGQVCKIDGSVLDGLCVNSTSQEHGVIELSDAYQLEDFPVGHQLRIMPNHACATAAMHPVYHVLMSDGSHNTWQRITGW
AKQAAQSTFNSFHEWAKQAEAMRNPSRMDIYKIYKQDAPHSHPMSDEQQEEFLHTLKALNGKNGIEVRTQDHDSVRNKKDRNLDKYIAESPDAKRFFYRIIPKHERREDKNQGRLTIGVQPQYATQLTRAMATLIGKESAITHGKVIGPACHGQMTDSAVLYINGDVAKAEKLGEKLKQMSGIPLDAFVEHTPLSMQSLSKGLSYAESILGDTRGHGMSRAEVISDALRMDGMPFLARLKLSLSANGYDPDNPALRNTK

Soluble on expression in E. coli, not soluble:
MGSDKIHHHHHHLDNSTSTATIDPPLRLGLAMWSQNQWQQTVYGNSQAHRLARYAEIFNTVEGNTTFYATPSLQNVQNWYAATHDEFKFTFKLPKHITHELQLQHAGPALQQFFSIMEPLINRTGVWKIQLPASFGPQSLPQLAQFLTQVPQGLTYGVEVRNSAFFAKGEAEQALNRLLIDNNCNRIIMDTRPVFAAAPTTAAVIDAHQKKPKVPVHAIATAHNPVVRFIGHPQAEANIHFFQNWLKQLPLWIAQNKQPYLFIHTPDNHNAPQLAVDLYRLLQQQLAQSTSALTDINLLPQQQHTTTQMGFDL
MLSEWQNHKAQLRNYVYKRVDDASAVDDILQDVYIKASSNLHQLKSKGSLKGWLYKIAYNTIMDFYRDKLPYDELPEDLVAEDEDAVEESRKEIAECMRPLIDELPDKYSVPLRLAELDGIPQQEIADKLGLSLSGAKSRIQRGRVKFRENLMTCCDFEINDGGMVTGYTPKKTNCSSPKR
MGSDKIHHHHHHMGNPSWINVFALVDYRSSSDTLYRVEEGLIPLETFDEINSGDPVVLSSFLNAYRGEDLSLLVIWNHGDWWRGESQKQVKGVAYDFVNLDFFTIKEIKSVLRDSPVTVLGFDACLMGTFEILWELKDCARYVVVSSKEAPGNGWDYSVLRYSKDLSSLLSNIVKRYGEIYGTEYSLSVWDTSKLDEIMLWLDRVAQYMIENNLSPWEFEVERRTAGGSTTELVELGSFAKSLQNSSDVVLREYGEGLYSAIVSARVYGTPDNYTDLTIYLPQNMKNPEYWDDFVALSDFTSESSWDDLIEHWRDKN
